Each block holds one molecule with its values, some of them ahead of it.
Legend:
[1] = target: MetVF heterodimer of the methylene-tetrahydrofolate reductase (MTHFR) from Clostridium ljungdahlii (Clostridium ljungdahlii (endogenous in C. ljungdahlii)); assay: SEC; analytical gel filtration of the purified MTHFR on Superdex 200 Increase, column calibrated with high- and low-molecular weight kits; dimer of MetVF heterodimers
[2] = substrate: Nc1nc2c(c(=O)[nH]1)N1CN(c3ccc(C(=O)N[C@@H](CCC(=O)O)C(=O)O)cc3)C[C@H]1CN2; assay: purified protein; type: biochemical, Clostridium ljungdahlii; settings: reduced ferredoxin as electron donor, 50 mM NaPi, 2 mM DTE, pH 7, 37 °C, methylene-THF made from formaldehyde and THF

- stoichiometry N [1]: 2
Molecule: MetVF heterodimer of the methylene-tetrahydrofolate reductase (MTHFR) from Clostridium ljungdahlii (complex)

B1: MetVF-type methylene-THF reductase (MTHFR) of C. ljungdahlii (Clostridium ljungdahlii DSM 13528) (protein)
chain: MSLLKEAFEKGEFAITAEMAPPKGTDLSHLIECAKKIKGRVQGVNVTDFQSATLKATSLATCKVLKDAGLEPVFQITGRDRNRIAIQGELLSAGVFEIENVLALTGDYTATGDHPGAKPVYDLDSVGILQVASILNGGKDMGGTDLKGKPDFFLGACVTPRYDPLELQVIKMKKKIKAGAKFFQTQAVYDMETLKKFKEETKAQGVDAKVMVGIIPLKSAGMAKYMNKNVPGIFVPDELIDRMKNAEDKVQEGIKIAGEFIKAVKESGLCDGVHIMAIGAEENVPLILDEAGL
notes: native enzyme purified from C. ljungdahlii cytoplasm, untagged; (MetVF)2 dimer of heterodimers, ~106 kDa native; MetF 33-35 kDa, MetV 23 kDa; FMN and 4Fe-4S clusters; with Methylene-tetrahydrofolate reductase C-terminal-like domain-containing protein
- K0.5 [2]: 70 µM
